Experimental findings from the supplement of paper PMC5998384 are described below.

For data set [1], the system named is HeLa Kyoto. The data set can be described thus: thermal stability score vs G1/S (z-score of summed log2 fold changes over temperatures); higher = more thermally stable than in G1/S.
The subject of data set [2] is HeLa Kyoto. The data set is described as follows: solubility in G1/S (NP-40 vs SDS abundance) (log2 ratio); higher = more soluble. The note with it: cell cycle stage: G1/S.
The subject of data set [3] is HeLa Kyoto. The data set is described as follows: melting temperature (median over replicates), in situ; higher = more thermally stable.
Data set [4] deals with HeLa Kyoto. The data set is described as follows: solubility change mitosis vs G1/S (difference of NP-40 vs SDS log2 ratios) (log2 ratio difference); higher = more soluble in mitosis.
Where [5] appears, read: cell cycle stage: early G1 (4.5 h after nocodazole release).
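Throughout, for melting temperature (median over replicates), in situ: HeLa Kyoto cells synchronized by double thymidine or nocodazole block, proteins quantified by TMT10plex mass spectrometry, three independent biological replicates.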
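Throughout, for solubility change mitosis vs G1/S (difference of NP-40 vs SDS log2 ratios): synchronized HeLa Kyoto cells (double thymidine block for G1/S, nocodazole release for mitosis), protein amounts in NP-40 versus SDS lysates quantified by mass spectrometry, three biological replicates.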
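Throughout, for solubility in G1/S (NP-40 vs SDS abundance): HeLa Kyoto cells arrested at G1/S by double thymidine block, proteins quantified by TMT10plex mass spectrometry in mild NP-40 versus SDS extracts, three biological replicates.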
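Throughout, for thermal stability score vs G1/S (z-score of summed log2 fold changes over temperatures): synchronized HeLa Kyoto cells, proteins quantified by TMT10plex mass spectrometry, three biological replicates, mitosis taken 0.5 h after nocodazole release, G1/S directly after double thymidine block.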

As for “MSKYKLIMLRHGEGAWNKENRFCSWVDQKLNSEGMEEARNCGKQLKALNFEFDLVFTSVLNRSIHTAWLILEELGQEWVPVESSWRLNERHYGALIGLNREQMALNHGEEQVRLWRRSYNVTPPPIEESHPYYQEIYNDRRYKVCDVPLDQLPRSESLKDVLERLLPYWNERIAPEVLRGKTILISAHGNSSRALLKHLEGISDEDIINITLPTGVPILLELDENLRAVGPHQFLGDQEAIQAAIKKVEDQGKVKQAKK [BPGM]”, the thermal stability score with HeLa Kyoto [1] (setting [5]) was determined as 1.51; in the data set on HeLa Kyoto [1] (cell cycle stage: mitosis), 0.348. Further, the “solubility in G1/S (log2)” value with HeLa Kyoto [2] came to 0.328. In addition, the melting temperature with HeLa Kyoto [3] (cell cycle stage: G1/S) was 53.1 °C; in the data set with HeLa Kyoto [3] (cell cycle stage: mitosis), 55.1 °C. Moreover, the “solubility change mitosis (log2)” value in the data set on HeLa Kyoto [4] was -0.0036.

With “MSLEDPFFVVRGEVQKAVNTARGLYQRWCELLQESAAVGREELDWTTNELRNGLRSIEWDLEDLEETIGIVEANPGKFKLPAGDLQERKVFVERMREAVQEMKDHMVSPTAVAFLERNNREILAGKPAAQKSPSDLLDASAVSATSRYIEEQQATQQLIMDEQDQQLEMVSGSIQVLKHMSGRVGEELDEQGIMLDAFAQEMDHTQSRMDGVLRKLAKVSHMTSDRRQWCAIAVLVGVLLLVLILLFSL [STX10]”, the values for the thermal stability score in the data set on HeLa Kyoto [1] (setting [5]) and in the data set on HeLa Kyoto [1] (cell cycle stage: mitosis) were 2.01 and 0.0715, respectively. Besides, in the data set on HeLa Kyoto [2], the “solubility in G1/S (log2)” value is -0.293. Also, the values for the melting temperature in the data set with HeLa Kyoto [3] (cell cycle stage: G1/S) and in the data set on HeLa Kyoto [3] (cell cycle stage: mitosis) were 52.1 °C and 51.6 °C, respectively. Also, the “solubility change mitosis (log2)” value in the data set with HeLa Kyoto [4] was -0.107.

As to “MSLFGTTSGFGTSGTSMFGSATTDNHNPMKDIEVTSSPDDSIGCLSFSPPTLPGNFLIAGSWANDVRCWEVQDSGQTIPKAQQMHTGPVLDVCWSDDGSKVFTASCDKTAKMWDLSSNQAIQIAQHDAPVKTIHWIKAPNYSCVMTGSWDKTLKFWDTRSSNPMMVLQLPERCYCADVIYPMAVVATAERGLIVYQLENQPSEFRRIESPLKHQHRCVAIFKDKQNKPTGFALGSIEGRVAIHYINPPNPAKDNFTFKCHRSNGTNTSAPQDIYAVNGIAFHPVHGTLATVGSDGRFSFWDKDARTKLKTSEQLDQPISACCFNHNGNIFAYASSYDWSKGHEFYNPQKKNYIFLRNAAEELKPRNKK [RAE1]”, the results for the thermal stability score in the data set on HeLa Kyoto [1] (setting [5]) and in the data set with HeLa Kyoto [1] (cell cycle stage: mitosis) were -1.34 and -0.473, respectively. Further, the “solubility in G1/S (log2)” value in the data set on HeLa Kyoto [2] was -0.0787. Also, the values for the melting temperature in the data set with HeLa Kyoto [3] (cell cycle stage: G1/S) and in the data set with HeLa Kyoto [3] (cell cycle stage: mitosis) were 49.8 °C and 49.1 °C, respectively. Moreover, the “solubility change mitosis (log2)” value in the data set on HeLa Kyoto [4] came to 0.128.

On to “MSLGRLCRLLKPALLCGALAAPGLAGTMCASRDDWRCARSMHEFSAKDIDGHMVNLDKYRGFVCIVTNVASQUGKTEVNYTQLVDLHARYAECGLRILAFPCNQFGKQEPGSNEEIKEFAAGYNVKFDMFSKICVNGDDAHPLWKWMKIQPKGKGILGNAIKWNFTKFLIDKNGCVVKRYGPMEEPLVIEKDLPHYF [GPX4]”, for which the results for the thermal stability score in the data set with HeLa Kyoto [1] (setting [5]) and in the data set with HeLa Kyoto [1] (cell cycle stage: mitosis) were -2.51 and -2.1, respectively. Besides, the “solubility in G1/S (log2)” value in the data set on HeLa Kyoto [2] turned out to be 0.136. Besides, the melting temperature in the data set on HeLa Kyoto [3] (cell cycle stage: G1/S) and in the data set on HeLa Kyoto [3] (cell cycle stage: mitosis) was 56.3 °C each time. In the data set on HeLa Kyoto [4], the “solubility change mitosis (log2)” value is -0.141.

Take “MSLHGKRKEIYKYEAPWTVYAMNWSVRPDKRFRLALGSFVEEYNNKVQLVGLDEESSEFICRNTFDHPYPTTKLMWIPDTKGVYPDLLATSGDYLRVWRVGETETRLECLLNNNKNSDFCAPLTSFDWNEVDPYLLGTSSIDTTCTIWGLETGQVLGRVNLVSGHVKTQLIAHDKEVYDIAFSRAGGGRDMFASVGADGSVRMFDLRHLEHSTIIYEDPQHHPLLRLCWNKQDPNYLATMAMDGMEVVILDVRVPCTPVARLNNHRACVNGIAWAPHSSCHICTAADDHQALIWDIQQMPRAIEDPILAYTAEGEINNVQWASTQPDWIAICYNNCLEILRV [DCAF7]”: the thermal stability score with HeLa Kyoto [1] (setting [5]) is 0.282; with HeLa Kyoto [1] (cell cycle stage: mitosis), -1.1. Also, the “solubility in G1/S (log2)” value in the data set on HeLa Kyoto [2] was -0.0563. Besides, the melting temperature in the data set on HeLa Kyoto [3] (cell cycle stage: G1/S) amounted to 52.2 °C; in the data set with HeLa Kyoto [3] (cell cycle stage: mitosis) it was 52.5 °C. For the same sequence, the “solubility change mitosis (log2)” value in the data set with HeLa Kyoto [4] is -0.147.

Take “MSLICSISNEVPEHPCVSPVSNHVYERRLIEKYIAENGTDPINNQPLSEEQLIDIKVAHPIRPKPPSATSIPAILKALQDEWDAVMLHSFTLRQQLQTTRQELSHALYQHDAACRVIARLTKEVTAAREALATLKPQAGLIVPQAVPSSQPSVVGAGEPMDLGELVGMTPEIIQKLQDKATVLTTERKKRGKTVPEELVKPEELSKYRQVASHVGLHSASIPGILALDLCPSDTNKILTGGADKNVVVFDKSSEQILATLKGHTKKVTSVVFHPSQDLVFSASPDATIRIWSVPNASCVQVVRAHESAVTGLSLHATGDYLLSSSDDQYWAFSDIQTGRVLTKVTDETSGCSLTCAQFHPDGLIFGTGTMDSQIKIWDLKERTNVANFPGHSGPITSIAFSENGYYLATAADDSSVKLWDLRKLKNFKTLQLDNNFEVKSLIFDQSGTYLALGGTDVQIYICKQWTEILHFTEHSGLTTGVAFGHHAKFIASTGMDRSLKFYSL [PRPF19]”: the thermal stability score in the data set on HeLa Kyoto [1] (setting [5]) is -0.506; in the data set with HeLa Kyoto [1] (cell cycle stage: mitosis), -3.39. For the same sequence, the “solubility in G1/S (log2)” value with HeLa Kyoto [2] is -0.473. In addition, the melting temperature with HeLa Kyoto [3] (cell cycle stage: G1/S) amounted to 56.5 °C; with HeLa Kyoto [3] (cell cycle stage: mitosis), 54 °C. Also, the “solubility change mitosis (log2)” value in the data set with HeLa Kyoto [4] was determined as 0.214.
